Data: patent publication US20220010021A1 (Sanofi, published 2022)
Numbering of substitutions follows the chain as printed. Names and notes keep the numbering of the source.

B1: Ab0462 (antibody, IgG4, V domains shown)
VH: QVTLKESGPVLVKPTETLTLTCTVSGFSLTNARVGVSWIRQPPGKALEWLAHIFSNDEKSYSTSLKSRLTISKDTSKSQVVLTMTNMDPVDTATYYCARSVVTGGYYYEGMDVWGQGTTVTVSS
VL: SYVLTQPPSVSVAPGQTARITCGGSNIGSESVHWYQQKPGQAPVLVVYEESDRPSGIPERFSGSNSGNTATLTISRVEAGDEADYYCQVWEGESDHVVFGGGTKLTVLG
B2: Ab0463 (antibody, IgG4, V domains shown)
VH: B1 VH with T30S, N31Y
VL: B1 VL
B3: Ab0464 (antibody, IgG4, V domains shown)
VH: B1 VH with N31Y
VL: B1 VL
B4: 16H7 light chain variant D95P (antibody, IgG4, V domains shown)
VH: not shown
VL: B1 VL with S25N, E49D, E50D, E91D, E93N, D95P
B5: 16H7 light chain variant D95V (antibody, IgG4, V domains shown)
VH: not shown
VL: B1 VL with S25N, E49D, E50D, E91D, E93N, D95V
B6: 16H7 light chain variant H96P (antibody, IgG4, V domains shown)
VH: not shown
VL: B1 VL with S25N, E49D, E50D, E91D, E93N, H96P
B7: 16H7 light chain variant D49V (antibody, IgG4, V domains shown)
VH: not shown
VL: B1 VL with S25N, E49V, E50D, E91D, E93N
B8: 16H7 light chain variant D95R (antibody, IgG4, V domains shown)
VH: not shown
VL: B1 VL with S25N, E49D, E50D, E91D, E93N, D95R
B9: 16H7 light chain variant H33R (antibody, IgG4, V domains shown)
VH: not shown
VL: B1 VL with S25N, H33R, E49D, E50D, E91D, E93N
B10: 16H7 light chain variant V97R (antibody, IgG4, V domains shown)
VH: not shown
VL: B1 VL with S25N, E49D, E50D, E91D, E93N, V97R
B11: 16H7 light chain variant D49C (antibody, IgG4, V domains shown)
VH: not shown
VL: B1 VL with S25N, E49C, E50D, E91D, E93N
B12: 16H7 light chain variant H33W (antibody, IgG4, V domains shown)
VH: not shown
VL: B1 VL with S25N, H33W, E49D, E50D, E91D, E93N
B13: 16H7 light chain variant D95C (antibody, IgG4, V domains shown)
VH: not shown
VL: B1 VL with S25N, E49D, E50D, E91D, E93N, D95C
B14: 16H7 light chain variant D49T (antibody, IgG4, V domains shown)
VH: not shown
VL: B1 VL with S25N, E49T, E50D, E91D, E93N
B15: 16H7 light chain variant V97E (antibody, IgG4, V domains shown)
VH: not shown
VL: B1 VL with S25N, E49D, E50D, E91D, E93N, V97E
B16: 16H7 light chain variant D49E (antibody, IgG4, V domains shown)
VH: not shown
VL: B1 VL with S25N, E50D, E91D, E93N
B17: 16H7 light chain variant D50P (antibody, IgG4, V domains shown)
VH: not shown
VL: B1 VL with S25N, E49D, E50P, E91D, E93N
B18: 16H7 light chain variant D49P (antibody, IgG4, V domains shown)
VH: not shown
VL: B1 VL with S25N, E49P, E50D, E91D, E93N
B19: 16H7 light chain variant D95N (antibody, IgG4, V domains shown)
VH: not shown
VL: B1 VL with S25N, E49D, E50D, E91D, E93N, D95N
B20: 16H7 light chain variant V97P (antibody, IgG4, V domains shown)
VH: not shown
VL: B1 VL with S25N, E49D, E50D, E91D, E93N, V97P
B21: 16H7 light chain variant V97H (antibody, IgG4, V domains shown)
VH: not shown
VL: B1 VL with S25N, E49D, E50D, E91D, E93N, V97H
B22: 16H7 light chain variant D95W (antibody, IgG4, V domains shown)
VH: not shown
VL: B1 VL with S25N, E49D, E50D, E91D, E93N, D95W
B23: 16H7 light chain variant V97A (antibody, IgG4, V domains shown)
VH: not shown
VL: B1 VL with S25N, E49D, E50D, E91D, E93N, V97A
B24: 16H7 light chain variant D49F (antibody, IgG4, V domains shown)
VH: not shown
VL: B1 VL with S25N, E49F, E50D, E91D, E93N
B25: 16H7 light chain variant D49M (antibody, IgG4, V domains shown)
VH: not shown
VL: B1 VL with S25N, E49M, E50D, E91D, E93N
B26: 16H7 light chain variant D49R (antibody, IgG4, V domains shown)
VH: not shown
VL: B1 VL with S25N, E49R, E50D, E91D, E93N
B27: 16H7 light chain variant D95E (antibody, IgG4, V domains shown)
VH: not shown
VL: B1 VL with S25N, E49D, E50D, E91D, E93N, D95E
B28: 16H7 light chain variant D49N (antibody, IgG4, V domains shown)
VH: not shown
VL: B1 VL with S25N, E49N, E50D, E91D, E93N
B29: 16H7 light chain variant V32P (antibody, IgG4, V domains shown)
VH: not shown
VL: B1 VL with S25N, V32P, E49D, E50D, E91D, E93N
B30: 16H7 light chain variant V97K (antibody, IgG4, V domains shown)
VH: not shown
VL: B1 VL with S25N, E49D, E50D, E91D, E93N, V97K
B31: 16H7 light chain variant D49I (antibody, IgG4, V domains shown)
VH: not shown
VL: B1 VL with S25N, E49I, E50D, E91D, E93N
B32: 16H7 light chain variant D95G (antibody, IgG4, V domains shown)
VH: not shown
VL: B1 VL with S25N, E49D, E50D, E91D, E93N, D95G
B33: 16H7 light chain variant V97D (antibody, IgG4, V domains shown)
VH: not shown
VL: B1 VL with S25N, E49D, E50D, E91D, E93N, V97D
B34: 16H7 light chain variant V97S (antibody, IgG4, V domains shown)
VH: not shown
VL: B1 VL with S25N, E49D, E50D, E91D, E93N, V97S
B35: 16H7 light chain variant D49K (antibody, IgG4, V domains shown)
VH: not shown
VL: B1 VL with S25N, E49K, E50D, E91D, E93N
B36: 16H7 light chain variant D49Y (antibody, IgG4, V domains shown)
VH: not shown
VL: B1 VL with S25N, E49Y, E50D, E91D, E93N
B37: 16H7 light chain variant D49L (antibody, IgG4, V domains shown)
VH: not shown
VL: B1 VL with S25N, E49L, E50D, E91D, E93N
B38: 16H7 light chain variant H33P (antibody, IgG4, V domains shown)
VH: not shown
VL: B1 VL with S25N, H33P, E49D, E50D, E91D, E93N
B39: 16H7 light chain variant D95F (antibody, IgG4, V domains shown)
VH: not shown
VL: B1 VL with S25N, E49D, E50D, E91D, E93N, D95F
B40: 16H7 light chain variant H33K (antibody, IgG4, V domains shown)
VH: not shown
VL: B1 VL with S25N, H33K, E49D, E50D, E91D, E93N
B41: 16H7 light chain variant D49H (antibody, IgG4, V domains shown)
VH: not shown
VL: B1 VL with S25N, E49H, E50D, E91D, E93N
B42: 16H7 light chain variant V97G (antibody, IgG4, V domains shown)
VH: not shown
VL: B1 VL with S25N, E49D, E50D, E91D, E93N, V97G
B43: 16H7 light chain variant D50K (antibody, IgG4, V domains shown)
VH: not shown
VL: B1 VL with S25N, E49D, E50K, E91D, E93N
B44: 16H7 light chain variant D49A (antibody, IgG4, V domains shown)
VH: not shown
VL: B1 VL with S25N, E49A, E50D, E91D, E93N
B45: 16H7 light chain variant D95S (antibody, IgG4, V domains shown)
VH: not shown
VL: B1 VL with S25N, E49D, E50D, E91D, E93N, D95S
B46: 16H7 light chain variant S94K (antibody, IgG4, V domains shown)
VH: not shown
VL: B1 VL with S25N, E49D, E50D, E91D, E93N, S94K

molecular target: human FGFR1c + KLB receptor complex on HEK293 iLite FGF21 reporter cells (human, UniProt P11362 22-822; Q86Z14 1-1044); test: cell-based or functional assay
Sequence (P11362 22-822, chain 1 of 2): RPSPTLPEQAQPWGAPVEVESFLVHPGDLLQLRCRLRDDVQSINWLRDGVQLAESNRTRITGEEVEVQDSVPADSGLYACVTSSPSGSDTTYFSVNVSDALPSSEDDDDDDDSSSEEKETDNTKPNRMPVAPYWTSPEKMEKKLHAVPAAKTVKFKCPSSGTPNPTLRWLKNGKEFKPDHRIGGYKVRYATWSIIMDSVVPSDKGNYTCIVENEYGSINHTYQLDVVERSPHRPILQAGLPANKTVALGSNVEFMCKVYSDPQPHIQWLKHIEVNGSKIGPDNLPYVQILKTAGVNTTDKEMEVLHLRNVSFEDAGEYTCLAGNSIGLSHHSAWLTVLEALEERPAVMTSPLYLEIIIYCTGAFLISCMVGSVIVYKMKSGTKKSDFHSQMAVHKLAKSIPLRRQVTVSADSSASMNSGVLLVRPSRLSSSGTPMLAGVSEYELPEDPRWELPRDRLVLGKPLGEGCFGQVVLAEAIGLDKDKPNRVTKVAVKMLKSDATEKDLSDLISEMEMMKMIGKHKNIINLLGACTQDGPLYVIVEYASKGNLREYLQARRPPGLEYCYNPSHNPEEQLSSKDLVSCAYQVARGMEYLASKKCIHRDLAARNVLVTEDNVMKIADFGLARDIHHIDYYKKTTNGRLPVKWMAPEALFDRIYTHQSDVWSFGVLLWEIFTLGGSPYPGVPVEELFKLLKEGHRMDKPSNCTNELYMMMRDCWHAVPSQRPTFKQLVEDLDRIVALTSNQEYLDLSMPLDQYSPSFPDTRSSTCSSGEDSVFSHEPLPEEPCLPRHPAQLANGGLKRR
Sequence (Q86Z14 whole entry, chain 2 of 2): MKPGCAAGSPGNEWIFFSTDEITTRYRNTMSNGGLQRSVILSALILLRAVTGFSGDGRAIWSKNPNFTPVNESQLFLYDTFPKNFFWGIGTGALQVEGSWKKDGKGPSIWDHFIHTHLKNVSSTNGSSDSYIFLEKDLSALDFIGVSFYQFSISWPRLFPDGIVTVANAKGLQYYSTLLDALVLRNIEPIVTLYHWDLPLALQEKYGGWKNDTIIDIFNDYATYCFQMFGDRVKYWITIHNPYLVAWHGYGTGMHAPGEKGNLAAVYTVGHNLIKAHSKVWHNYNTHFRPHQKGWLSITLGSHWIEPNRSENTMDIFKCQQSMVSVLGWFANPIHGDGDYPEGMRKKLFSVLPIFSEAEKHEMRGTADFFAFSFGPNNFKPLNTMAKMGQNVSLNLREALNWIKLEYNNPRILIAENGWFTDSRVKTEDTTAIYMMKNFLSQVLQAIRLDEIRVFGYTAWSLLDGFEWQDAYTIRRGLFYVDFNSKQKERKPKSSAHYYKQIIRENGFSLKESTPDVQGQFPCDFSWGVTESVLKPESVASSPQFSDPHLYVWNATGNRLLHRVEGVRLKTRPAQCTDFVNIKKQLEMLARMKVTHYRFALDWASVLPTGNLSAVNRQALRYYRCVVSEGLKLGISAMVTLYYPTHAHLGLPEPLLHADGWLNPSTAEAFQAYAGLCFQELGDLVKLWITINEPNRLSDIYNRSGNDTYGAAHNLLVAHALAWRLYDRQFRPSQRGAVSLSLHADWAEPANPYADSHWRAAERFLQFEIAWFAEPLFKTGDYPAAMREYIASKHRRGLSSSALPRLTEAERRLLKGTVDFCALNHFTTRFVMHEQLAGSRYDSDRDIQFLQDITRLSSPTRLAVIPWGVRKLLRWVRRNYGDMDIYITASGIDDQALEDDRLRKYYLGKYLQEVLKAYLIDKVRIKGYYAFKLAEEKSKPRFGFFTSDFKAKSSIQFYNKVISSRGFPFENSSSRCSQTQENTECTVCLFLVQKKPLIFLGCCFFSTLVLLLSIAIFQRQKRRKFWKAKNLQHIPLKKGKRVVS

Row | EC50 | Emax | Binder
1 | 0.03 nM | 1340% | B1
2 | 0.05 nM | 951% | B2
3 | 0.02 nM | 910% | B3

molecular target: cell surface receptor composed of FGFR1c and co-receptor beta-Klotho (KLB) (human, UniProt P11362 22-822; Q86Z14 1-1044); test: cell-based or functional assay; for Mean E max, Luciferase reporter gene assay: reference of the scale not given here
Sequence (P11362 22-822, chain 1 of 2): as the sequence (P11362 22-822, chain 1 of 2) above
Sequence (Q86Z14 whole entry, chain 2 of 2): as the sequence (Q86Z14 whole entry, chain 2 of 2) above

Row | Mean E max, Luciferase reporter gene assay | Mean EC50, Luciferase reporter gene assay | Binder
4 | 4% |  | B4
5 | 3% |  | B5
6 | 50% |  | B6
7 | 97% | 0.206 nM | B7
8 | 4% |  | B8
9 | 68% | 2.19 nM | B9
10 | -1% |  | B10
11 | 85% | 0.789 nM | B11
12 | 80% | 0.666 nM | B12
13 | 4% |  | B13
14 | 89% | 0.107 nM | B14
15 | 92% | 0.15 nM | B15
16 | 87% | 0.193 nM | B16
17 | 77% | 0.124 nM | B17
18 | 96% | 0.195 nM | B18
19 | 78% | 1.03 nM | B19
20 | 65% | 2.55 nM | B20
21 | 71% | 1.47 nM | B21
22 | 5% |  | B22
23 | 68% | 2.09 nM | B23
24 | 94% | 0.256 nM | B24
25 | 85% | 0.224 nM | B25

Row | Mean E max, Luciferase reporter gene assay | Mean EC50, Luciferase reporter gene assay | Binder
26 | 72% | 1.86 nM | B26
27 | 44% | 8.04 nM | B27
28 | 108% | 0.19 nM | B28
29 | 85% | 0.164 nM | B29
30 | 96% | 0.444 nM | B30
31 | 83% | 0.149 nM | B31
32 | 47% | 6.56 nM | B32
33 | 67% | 0.375 nM | B33
34 | 84% | 0.308 nM | B34
35 | 83% | 1.34 nM | B35
36 | 99% | 0.151 nM | B36
37 | 92% | 0.529 nM | B37
38 | 90% | 0.253 nM | B38
39 | -1% |  | B39
40 | 96% | 0.174 nM | B40
41 | 90% | 0.183 nM | B41
42 | 75% | 0.51 nM | B42
43 | 109% |  | B43
44 | 100% | 0.106 nM | B44
45 | 37% |  | B45
46 | 104% | 0.185 nM | B46
